Here are results for one protein from patent US20140141456.

In series [1] the target is C-terminally c-myc tagged rIGFBP-5 (human IGFBP-5 with myc epitope and His6, expressed in mammalian cells), P24593.
For series [2], the target named is rIGFBP-3 (gift of D. Powell), P17936.
Series [3] concerns the target rIGFBP-5 (gift of D. Andress), P24593.

Sequence of C-terminally c-myc tagged rIGFBP-5 (human IGFBP-5 with myc epitope and His6, expressed in mammalian cells), P24593 (P24593 other isoform, or with tags, fused parts or gaps): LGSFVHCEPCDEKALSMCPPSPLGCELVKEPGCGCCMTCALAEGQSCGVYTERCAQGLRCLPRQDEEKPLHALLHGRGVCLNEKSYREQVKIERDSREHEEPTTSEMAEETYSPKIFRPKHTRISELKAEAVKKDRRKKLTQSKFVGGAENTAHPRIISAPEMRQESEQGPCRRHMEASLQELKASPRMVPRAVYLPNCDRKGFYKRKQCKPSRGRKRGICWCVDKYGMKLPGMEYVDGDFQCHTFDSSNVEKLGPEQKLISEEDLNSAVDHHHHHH
Sequence of rIGFBP-5 (gift of D. Andress), P24593 (P24593 21-272): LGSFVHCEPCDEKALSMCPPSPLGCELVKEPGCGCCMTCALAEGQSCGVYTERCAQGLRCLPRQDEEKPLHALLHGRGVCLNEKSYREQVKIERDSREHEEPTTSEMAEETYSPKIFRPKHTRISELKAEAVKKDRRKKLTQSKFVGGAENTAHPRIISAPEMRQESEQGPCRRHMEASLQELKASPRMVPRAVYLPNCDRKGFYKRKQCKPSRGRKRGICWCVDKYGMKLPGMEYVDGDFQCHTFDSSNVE
Sequence of rIGFBP-3 (gift of D. Powell), P17936 (P17936 28-291): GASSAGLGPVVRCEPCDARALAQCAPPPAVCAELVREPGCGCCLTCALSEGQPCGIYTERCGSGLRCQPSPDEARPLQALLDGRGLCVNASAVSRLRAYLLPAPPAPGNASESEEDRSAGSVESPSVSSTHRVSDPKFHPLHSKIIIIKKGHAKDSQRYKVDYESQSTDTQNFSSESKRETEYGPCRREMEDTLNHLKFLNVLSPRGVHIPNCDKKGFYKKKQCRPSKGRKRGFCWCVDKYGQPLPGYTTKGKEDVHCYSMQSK

B1: PAPP-A2 (recombinant, in medium from 293T cells transfected with cDNA encoding PAPP-A2, pPA2; also purified PAPP-A2) (protein)
chain: SPPEESNQNGGEGSYREAETFNSQVGLPILYFSGRRERLLLRPEVLAEIPREAFTVEAWVKPEGGQNNPAIIAGVFDNCSHTVSDKGWALGIRSGKDKGKRDARFFFSLCTDRVKKATILISHSRYQPGTWTHVAATYDGRHMALYVDGTQVASSLDQSGPLNSPFMASCRSLLLGGDSSEDGHYFRGHLGTLVFWSTALPQSHFQHSSQHSSGEEEATDLVLTASFEPVNTEWVPFRDEKYPRLEVLQGFEPEPEILSPLQPPLCGQTVCDNVELISQYNGYWPLRGEKVIRYQVVNICDDEGLNPIVSEEQIRLQHEALNEAFSRYNISWQLSVHQVHNSTLRHRVVLVNCEPSKIGNDHCDPECEHPLTGYDGGDCRLQGRCYSWNRRDGLCHVECNNMLNDFDDGDCCDPQVADVRKTCFDPDSPKRAYMSVKELKEALQLNSTHFLNIYFASSVREDLAGAATWPWDKDAVTHLGGIVLSPAYYGMPGHTDTMIHEVGHVLGLYHVFKGVSERESCNDPCKETVPSMETGDLCADTAPTPKSELCREPEPTSDTCGFTRFPGAPFTNYMSYTDDNCTDNFTPNQVARMHCYLDLVYQQWTESRKPTPIPIPPMVIGQTNKSLTIHWLPPISGVVYDRASGSLCGACTEDGTFRQYVHTASSRRVCDSSGYWTPEEAVGPPDVDQPCEPSLQAWSPEVHLYHMNMTVPCPTEGCSLELLFQHPVQADTLTLWVTSFFMESSQVLFDTEILLENKESVHLGPLDTFCDIPLTIKLHVDGKVSGVKVYTFDERIEIDAALLTSQPHSPLCSGCRPVRYQVLRDPPFASGLPVVVTHSHRKFTDVEVTPGQMYQYQVLAEAGGELGEASPPLNHIHGAPYCGDGKVSERLGEECDDGDLVSGDGCSKVCELEEGFNCVGEPSLCYMYEGDGICEPFERKTSIVDCGIYTPKGYLDQWATRAYSSHEDKKKCPVSLVTGEPHSLICTSYHPDLPNHRPLTGWFPCVASENETQDDRSEQPEGSLKKEDEVWLKVCFNRPGEARAIFIFLTTDGLVPGEHQQPTVTLYLTDVRGSNHSLGTYGLSCQHNPLIINVTHHQNVLFHHTTSVLLNFSSPRVGISAVALRTSSRIGLSAPSNCISEDEGQNHQGQSCIHRPCGKQDSCPSLLLDHADVVNCTSIGPGLMKCAITCQRGFALQASSGQYIRPMQKEILLTCSSGHWDQNVSCLPVDCGVPDPSLVNYANFSCSEGTKFLKRCSISCVPPAKLQGLSPWLTCLEDGLWSLPEVYCKLECDAPPIILNANLLLPHCLQDNHDVGTICKYECKPGYYVAESAEGKVRNKLLKIQCLEGGIWEQGSCIPVVCEPPPPVFEGMYECTNGFSLDSQCVLNCNQEREKLPILCTKEGLWTQEFKLCENLQGECPPPPSELNSVEYKCEQGYGIGAVCSPLCVIPPSDPVMLPENITADTLEHWMEPVKVQSIVCTGRRQWHPDPVLVHCIQSCEPFQADGWCDTINNRAYCHYDGGDCCSSTLSSKKVIPFAADCDLDECTCRDPKAEENQ
With B1, the “Proteolytic activity was assessed by Western blotting using anti-c-myc” value in series [1] is listed as “In the absence of inhibitors, wild-type PAPP-A2 degraded all rIGFBP-5 (lane 3)”. The “activity assessed by ligand blotting using radiolabeled IGF-II” value in series [2] is on record as “IGFBP-3 was partially degraded”; in series [3], “IGFBP-5 showed complete cleavage”.
